The values below come from US8299032B2, “Self-assembling peptide and gel produced from the same” (Menicon Co., Ltd., priority 2005, dated 2012).

Format in all cases: physicochemical
Series [1] is described as follows: Gel formation, test tube placed up-side-down. Set-up: key to Gel Formation: Excellent: those in which the contents did not drop off were evaluated as the gel formation being “excellent”; Poor: those in which the contents dropped off were evaluated as being “poor.”. As to conditions: 37° C. for 24 hours; for Gel Formation: peptide 0.5% by weight; for gel formation in neutral aqueous solution (summary of Table 11): neutral aqueous solutions, 0.5% by weight. Here is the method: Peptide Nos. 1, 2, 4, 5, 6, 10 and 11 synthesized in Production Examples 1 and 2 were dissolved in each of aqueous solutions listed in Table 11. A 1.5 mL test tube was charged with 1 mL of the resulting peptide-containing aqueous solution. Next, the test tube was allowed to stand at 37° C. for 24 hours.

The nature of series [2]: Visible light transmittance of peptide gel (380 to 780 nm). The settings on record: for decreasing ratio of visible light transmittance: after 2 months at room temperature versus before storage; for visible light transmittance (average) after standing: gel allowed to stand at room temperature for 2 months; for Visible Light Transmittance (average, 380 to 780 nm): gel of 0.5% by weight peptide in 0.1 M Tris-HCl (pH 7.5), optical path length 10 mm; for long-term stability of gel (no white turbidity): room temperature, 2 months. An excerpt:
In a case where the gel of the present invention is used, for example, as a scaffold for a three-dimensional culture of the cells, it is desired that the used concentration of the self-assembling peptide of the present invention upon gel formation in a medium for cell culture is preferably 0.3% by weight or more, and more preferably 0.5% by weight or more, from the viewpoint of easiness in gel formation, and that the used concentration of the peptide is preferably 5% by weight or less, and more preferably 2% by weight or less, from the viewpoint of easy miscibility with the cells. In addition, in such a case, it is preferable that the gel is transparent, from the viewpoint of easiness in cell observation with a fluorescent microscope or the like. For example, in a gel containing 0.5% by weight of a self-assembling peptide, it is desired that the visible light transmittance which is determined in terms of absorbance at 380 to 780 nm in a cell having an optical path of 10 mm is at least 50%/cm, and it is desired that the visible light transmittance is preferably 70%/cm or more, and more preferably 90% 1 cm or more. Further, it is desired that the visible light transmittance of the gel after allowing it to stand at room temperature for a long period of time, for example, 2 months, is preferably 50%/cm or more, more preferably 70%/cm or more, and even more preferably 90%/cm or more, from the viewpoint of long-term stability of the gel, and that the decreasing ratio (%) of the visible light transmittance (100−(visible light transmittance after storage/visible light transmittance before storage×100)) is preferably 30% or less, more preferably 20% or less, and even more preferably 10% or less. The transparency of the gel can be determined with UV/VIS measurement apparatus as described in Examples set forth below.
Peptide Nos. 1 to 9 synthesized in Production Examples 1 and 2 were dissolved in 0.1 M Tris-HCl (pH 7.5), to prepare a gel composed of a 0.5% by weight peptide solution. The visible light transmittance of the prepared gel within the range of from 380 to 780 nm was determined using a cell having an optical path length of 10 mm and trade name V-550 UV/VIS Spectrometer (manufactured by JASCO).
Therefore, it could be seen that each of Peptide Nos. 1 to 9 mentioned above formed a transparent gel. In addition, of the above gels, the gel comprising each of Peptide Nos. 1, 4, 6, or 7 was allowed to stand at room temperature for 2 months, and the visible light transmittance was determined in the same manner as above. As a result, an average thereof was respectively 88, 87, 91, or 93%/cm, and the decreasing ratio was respectively 9.3, 5.4, 6.2, or 4.1%. In other words, the gel after 2 months passed from the preparation also maintained high visible light transmittance.

A short description of series [3]: Confirmation of beta-sheet structure formation by circular dichroism measurement. The settings on record: 3×10^−3 M peptide in 0.1 M Tris-HCl (pH 7.5). Here is the method: The formation of each of the beta (β)-sheet structures of Peptide Nos. 1 to 9 and 12 synthesized in Production Examples 1 and 2 mentioned above was confirmed in accordance with circular dichroism measurement method. Concretely, each of the peptides was dissolved in 0.1 M Tris-HCl (pH 7.5) to prepare a 3×10^−3 M peptide solution. The resulting peptide solution was filled into a quartz cell having an optical path length of 0.5 mm (manufactured by JASCO, trade name: 110J cylindrical cell, volume: 0.04 mL), and the quartz cell was set in trade name J-820K Spectropolarimeter (manufactured by JASCO), and the molar ellipticities at 195 to 260 nm for the peptide solutions were determined in accordance with the circular dichroism measurement method.
For orientation: Circular dichroism is widely used to follow secondary structure.

Turning to “RFDFRFDFRFDFRFDF (Synthetic peptide which is not a peptide of the invention) [compound 11, comparative peptide, which is not self-assembling peptide of the present invention; charge at pH 7.0 is 0, reference compound]”, the “Gel Formation” value in series [1] (PBS pH 7.4) is on record as “Poor”. For the same sequence, the “gel formation in neutral aqueous solution (summary of Table 11)” value (shortened to “gel formation … (summary of Table 11)”) in series [1] is “did not form into gel in a neutral aqueous solution”.
Consider “RASARADARASARADA (Synthetic self-assembling peptide of the invention) [Peptide No. 1, self-assembling peptide of the present invention]”, for which the “Gel Formation” value in series [1] (D-MEM/F12(1:1) Medium pH 7.5), in series [1] (PBS pH 7.4), in series [1] (Tris-HCl 0.05 M pH 7.5), in series [1] (Tris-HCl 0.1 M pH 7.5), in series [1] (Tris-HCl 0.2 M pH 7.5) and in series [1] (Tris-HCl 0.4 M pH 7.5) was “Excellent” in each case. For the same sequence, the “Gel Formation” value in series [1] (Tris-HCl 0.6 M pH 7.5), in series [1] (Tris-HCl 0.8 M pH 7.5) and in series [1] (Tris-HCl 1 M pH 7.5) was “Excellent” each time. In addition, the “gel formation … (summary of Table 11)” value in series [1] is reported as “formed into gel in various neutral aqueous solutions”. Also, in series [2], the “decreasing ratio of visible light transmittance” value (from here on “decreasing ratio”) came out at 9.3%. Moreover, the “visible light transmittance (average) after standing” value in series [2] is 88 %/cm. In addition, the “Visible Light Transmittance (average, 380 to 780 nm)” value in series [2] was 97%. Also, in series [2], the “long-term stability of gel (no white turbidity)” value is “stable for a long period of time without becoming white turbid”.
“RADARASARASARADA (Synthetic self-assembling peptide of the invention) [Peptide No. 5, self-assembling peptide of the present invention]”: the “Gel Formation” value in series [1] (Tris-HCl 0.1 M pH 7.5) is listed as “Excellent”. Besides, in series [1], the “gel formation … (summary of Table 11)” value is “formed into gel in various neutral aqueous solutions”. The “Visible Light Transmittance (average, 380 to 780 nm)” value in series [2] came to 78%.
Take “HKHQHDHKHQHDHKHQHD (Synthetic peptide which is not a peptide of the invention) [Peptide No. 12, peptide not having a nonpolar amino acid residue, not a peptide of the present invention]”: the “formation of beta (β)-sheet structure in aqueous solution” value in series [3] is given as “did not form a beta(β)-sheet structure”.
On to “RAAARADARAAARADA (Synthetic self-assembling peptide of the invention) [Peptide No. 3, self-assembling peptide of the present invention]”, for which, in series [2], the “Visible Light Transmittance (average, 380 to 780 nm)” value came to 91%.
As for “RANARADARANARADA (Synthetic self-assembling peptide of the invention) [Peptide No. 2, self-assembling peptide of the present invention]”, the “Gel Formation” value in series [1] (Tris-HCl 0.1 M pH 7.5) is recorded as “Excellent”. For the same sequence, the “gel formation … (summary of Table 11)” value in series [1] was “formed into gel in various neutral aqueous solutions”. The “Visible Light Transmittance (average, 380 to 780 nm)” value in series [2] was 77%.
Regarding “KASAKAEAKASAKAEA (Synthetic self-assembling peptide of the invention) [Peptide No. 8, self-assembling peptide of the present invention]”, the “Visible Light Transmittance (average, 380 to 780 nm)” value in series [2] turned out to be 94%.
Turning to “SAEAKAEASAEAKAEA (Synthetic self-assembling peptide of the invention) [Peptide No. 9, self-assembling peptide of the present invention]”, the “Visible Light Transmittance (average, 380 to 780 nm)” value in series [2] was determined as 93%.
Turning to “RASARASARASARADA (Synthetic self-assembling peptide of the invention) [Peptide No. 6, self-assembling peptide of the present invention]”, the “Gel Formation” value in series [1] (Tris-HCl 0.1 M pH 7.5) is reported as “Excellent”. Moreover, in series [1], the “gel formation … (summary of Table 11)” value was “formed into gel in various neutral aqueous solutions”. In addition, in series [2], the “decreasing ratio” value is 6.2%; the “visible light transmittance (average) after standing” value was 91 %/cm; the “Visible Light Transmittance (average, 380 to 780 nm)” value came to 97%; the “long-term stability of gel (no white turbidity)” value is on record as “stable for a long period of time without becoming white turbid”.
Take “RASARADARADARASA (Synthetic self-assembling peptide of the invention) [Peptide No. 4, self-assembling peptide of the present invention]”: the “Gel Formation” value in series [1] (PBS pH 7.4), in series [1] (Tris-HCl 0.05 M pH 7.5), in series [1] (Tris-HCl 0.1 M pH 7.5), in series [1] (Tris-HCl 0.2 M pH 7.5), in series [1] (Tris-HCl 0.4 M pH 7.5) and in series [1] (Tris-HCl 0.6 M pH 7.5) was “Excellent” in each case. In addition, the “Gel Formation” value in series [1] (Tris-HCl 0.8 M pH 7.5) and in series [1] (Tris-HCl 1 M pH 7.5) was “Excellent” in each case. In series [1], the “gel formation … (summary of Table 11)” value was “formed into gel in various neutral aqueous solutions”. Further, the “decreasing ratio” value in series [2] stood at 5.4%. Also, the “visible light transmittance (average) after standing” value in series [2] is given as 87 %/cm. For the same sequence, the “Visible Light Transmittance (average, 380 to 780 nm)” value in series [2] stood at 92%. Moreover, the “long-term stability of gel (no white turbidity)” value in series [2] is on record as “stable for a long period of time without becoming white turbid”.
Take “RASARADARASA (Synthetic self-assembling peptide of the invention) [Peptide No. 7, self-assembling peptide of the present invention]”: in series [2], the “decreasing ratio” value worked out at 4.1%; the “visible light transmittance (average) after standing” value stood at 93 %/cm; the “Visible Light Transmittance (average, 380 to 780 nm)” value is 97%; the “long-term stability of gel (no white turbidity)” value is on record as “stable for a long period of time without becoming white turbid”.
